# Assay results as given in US10080776B2, “Molecular marker for cancer stem cell” (Sapporo Medical University, priority 2008, dated 2018).
# “Also recorded” adds a separate entry of the source. No end group written: not given here.
# Assays:
# [1] = test system: T2A24 cells pulsed with peptide; assay: Cr51 cytotoxicity assay: SOX2 peptide-induced CTLs against peptide-pulsed T2A24; type: cell-based, human; settings: Cr51 release, 4 hours
# Method: 50 mL of peripheral blood from HLA-A24-positive lung cancer patients who gave informed consent and HLA-A24-positive healthy subjects was centrifuged in a Ficoll-Conray density gradient, and peripheral blood mononuclear cells (PBMC) were separated and collected. Subsequently, lymphocytes of PBMC were separated into CD8-positive lymphocytes and CD8-negative lymphocytes using CD8 MACS beads.
# In a 96 well plate, 200000 cells/well of CD8-negative lymphocytes and the above-mentioned HLA-A24 binding SOX2 peptide were mixed, and the mixture was allowed to stand at room temperature for 2 hours, and then subjected to a degree of 100 Gy radiation treatment. […] The peptide-specific reactivity of the induced CTLs was evaluated by a cytotoxicity assay or an ELISPOT assay.
# Cr^51 was added to T2A24 cells, the cells were cultured in RPMI medium at 37° C. for 1 hour, radiolabeled, and washed with RPMI medium 4 times. […] Supernatant was then collected, and the gamma-ray dose was measured using a gamma counter.
# The dose when only RPMI medium and peptide-pulsed T2A24 were cultured was defined as spontaneous release (SPR), the dose when cell lysate (2% NP40) and peptide-pulsed T2A24 were cultured was defined as maximum release (MXR), and cellular cytotoxicity was calculated as (measured value−SPR)/(MXR−SPR)×100.
# [2] = molecular target: HLA-A2402 (Homo sapiens, UniProt P04439, D101N/D140Y/D185E/E176V/E190D/F33S/G103R/G107R/I119L/I121M/I306V/K335N/L105A/L180Q/L300P/N151K/N90K/Q86E/Q94H/R106L/R138H/R89G/T104I/T345S/V100E/W191G/Y123F); assay: HLA-A24 peptide binding assay of or7c1-derived peptides; settings: T2A24 cells, fluorescence of HLA-A24 antibody
# Method: Cell line T2A24 for which HLA-A2402 had been gene-transferred to peptide transporter-deficient T2 cells was used in an assay, and experiment was carried out in the same way as in Experimental Example 16. In this Experimental Example, SL-8 was used as a negative control, and survivin-2B (SEQ ID No: 72) was used as a positive control.
# The peptides below were prepared in the same way as in Experimental Example 26, and a binding assay was carried out.
# [3] = test system: T2A24 pulsed with peptide; assay: 51Cr release assay with CTLs and or7c1 peptide-pulsed T2A24; type: cell-based, human; settings: T2A24 pulsed with 5 μg/mL peptide, E/T ratios of 20 and 6
# Method: PBMC was separated from whole blood (heparin added) sampled from a test subject using Lymphoprep (Nycomed). After PBMC was cultured at 37° C. for 24 hours, an experiment was carried out using non-adherent cells. In order to obtain CD8-positive cells from the non-adherent cells, CD8-positive and -negative cells were separated using a magnetic cell separation system (Miltenyi Biotech). For CD8-negative cells, 100 U/mL IL-2 and 1 μg/mL PHA-P were added to AIM-V medium (Life Technologies) to give PHA-blast. The CD8-positive cells were cultured in AIM-V medium at 37° C. and stimulated with ⅕ the amount of PHA-blast three times every 7 days (0th day, 7th day, 14th day). From the 8th day, 50 U/mL of IL-2 was added to the medium, and thereafter every 3 to 4 days the medium was exchanged, and 50 U/mL of IL-2 was added. The cells were subjected as CTLs to ELISPOT on the 21st day and a ^51Cr release assay on the 28th day.
# In an assay for measuring cellular cytotoxicity, cells were labeled with radioactive ^51Cr, and cellular cytotoxicity by CTLs was measured. CTLs were used as effector cells, and T2A24, K562, Sw480, and Sw480 constitutively expressing or7c1 were used as target cells. […] Kill %=(measured release−spontaneous release)×100/(maximum release−spontaneous release)
Substance,binding to HLA-A2402 [2],also measured
"RYLRDQQLLGI [HIV-derived peptide, reference compound]",–,cellular cytotoxicity of CTLs against peptide-pulsed T2A24 [1]: hardly any radiation due to damaged cells was detected
"TYAGCLSQIF [93(10), TYAGCLSQIF]",–,cellular cytotoxicity (kill %) [3]: higher cellular cytotoxicity
"KYRPRRKTKTL [SOX2_109 peptide, KYRPRRKTKTL]",–,cellular cytotoxicity of CTLs against peptide-pulsed T2A24 [1]: strong radiation was detected; also recorded: extremely high level of cytotoxicity

# Now from value to substance, other results behind:
binding to HLA-A2402 [2],Substance,also measured
binding to HLA-A2402 was observed,MYTMVTPML (peptide fragment of OR7C1) [277(9)],–
binding to HLA-A2402 was observed,MYLVTFTGNL (peptide fragment of OR7C1) [34(10)],–
binding to HLA-A2402 was observed,FYGTGFGVYL (peptide fragment of OR7C1) [251(10)],–
binding to HLA-A2402 was observed,HYTViMNPQL (HYTVIMNPQL; not fully specified (residue 5); printed as HYTViMNPQL) [131(10)],–
